According to patent publication US20030092616A1, “STAT6 activation gene” (priority 2001, published 2003):

B1: 26 (nucleic acid, listed as Homo sapiens)
chain: AGCCAAGGAGCAATAACTGAACGTTTAAGAAGCTTCAGTATGCATGATTTAACAACTATCCAAGGTGATGAGCCTGTGGGACAAAGACCATACCAACCTCTACCAGAAGCAAAAAAGAAAAGTAAACCAGCCCCCAGTGAATCAGCAGGTTATGGAATTCCACTGAAAGACGGAGATGAGAAAACAGATGAAGAAGCAGAGGGGCCATATTCAGATAATGAGATGTTAACACACAAAGGGCTTCGAAGATCGCAAAGCATGAAATCTGTGAAAACCACCAAAGGCCGCAAAGAGGTGCGGTACGGGTCACTAAAATACAAAGTGAAGAAACGACCACAAGTGTATTTTTAGTCATCTACACGTCAAATATCCCAAGACAGATTATGCTAAATACATCGACTTCATCTTCTAACATGATATATTCAGGATTTACACATTAAAATGATTATTT
modifications: CDS (40)..(348)
B2: 217 (nucleic acid, listed as Homo sapiens)
chain: AAGCAATGCGCAGCAGCCAGATCTGTCCAAAGCAGTTTCACTCTCAATGGGACTGTATATGGGAGAGACAGAAACAAAAGTGATGGGAAATGACCTGGGATTCCCACAGCAGGGCCAAATCAGCCTTTCCTCGGGGGAAACAGACTTAAAGCTTTTGGAAGAAAGCATTGCAAACCTCAATAGGTCGACCAGTGTTCCAGAGAACCCCAAGAGTTCAGCATCCACTGCTGTGTCTGCTGCCCCCACAGAGAAGGAGTTTCCAAAAACTCACTCTGATGTATCTTCAGAACAGCAACATTTGAAGGGCCAGACTGGCACCAACGGTGGCAATGTGAAATTGTATACCACAGACCAAAGCACCTTTGACATTTTGCAGGATTTGGAGTTTTCTTCTGGGTCCCCAGGTAAAGAGACGAATGAGAGTCCTTGGAGATCAGACCTGTTGATAGATGAAAACTGTTTGCTTTCTCCTCTGGCGGGAGAAGACGATTCATTCCTTTTGGAAGGAAACTCGAATGAGGACTGCAAGCCTCTCATTTTACCGGACACTAAACCCAAAATTAAGGATAATGGAGATCTGGTTTTGTCAAGCCCCAGTAATGTAACACTGCCCCAAGTGAAAACAGAAAAAGAAGATTTCATCGAACTCTGCACCCCTGGGGTAATTAAGCAAGAGAAACTGGGCACAGTTTACTGTCAGGCAAGCTTTCCTGGAGCAAATATAATTGGTAATAAAATGTCTGCCATTTCTGTTCATGGTGTGAGTACCTCTGGAGGACAGATGTACCACTATGACATGAATACAGCATCCCTTTCTCAACAGCAGGATCAGAAGCCTATTTTTAATGTCATTCCACCAATTCCCGTTGGTTCCGAAAATTGGAATAGGTGCCAAGGATCTGGAGATGACAACTTGACTTCTCTGGGGACTCTGAACTTCCCTGGTCGAACAGTTTTTTCTAATGGCTATTCAAGCCCCAGCATGAGACCAGATGTAAGCCCTCCTCCATCCAGCTCCTCAACAGCAACAACAGGACCACCTCCCAAACTCTGCCTGGTGTGCTCTGATGAAGCTTCAGGATGTTATTATGGAGTCTTAACTTGTGGAAGCTGTAAAGTTTTCTTCAAAAGAGCAGTGGAAGGACAGCACAATTACCTATGTGCTGGAAGGAATGATTGCATCATCGATAAAATTCGAAGAAAAAACTGCCCAGCATGCCGCTATCGAAAATGTCTTCAGGCTGGAATGAACCTGGAAGCTCG
modifications: CDS (47)..(1261)
B3: 219 (nucleic acid, listed as Homo sapiens)
chain: GTATACCACAGACCAAAGCACCTTTGACATTTTGCAGGATTTGGAGTTTTCTTCTGGGTCCCCAGGTAAAGAGACGAATGAGAGTCCTTGGAGATCAGACCTGTTGATAGATGAAAACTGTTTGCTTTCTCCTCTGGCGGGAGAAGACGATTCATTCCTTTTGGAAGGAAACTCGAATGAGGACTGCAAGCCTCTCATTTTACCGGACACTAAACCCAAAATTAAGGATAATGGAGATCTGGTTTTGTCAAGCCCCAGTAATGTAACACTGCCCCAAGTGAAAACAGAAAAAGAAGATTTCATCGAACTCTGCACCCCTGGGGTAATTAAGCAAGAGAAACTGGGCACAGTTTACTGTCAGGCAAGCTTTCCTGGAGCAAATATAATTGGTAATAAAATGTCTGCCATTTCTGTTCATGGTGTGAGTACCTCTGGAGGACAGATGTACCACTATGACATGAATACAGCATCCCTTTCTCAACAGCAGGATCAGAAGCCTATTTTTAATGTCATTCCACCAATTCCCGTTGGTTCCGAAAATTGGAATAGGTGCCAAGGATCTGGAGATGACAACTTGACTTCTCTGGGGACTCTGAACTTCCCTGGTCGAACAGTTTTTTCTAATGGCTATTCAAGCCCCAGCATGAGACCAGATGTAAGCTCTCCTCCATCCAGCTCCTCAACAGCAACAACAGGACCACCTCCCAAACTCTGCCTGGTGTGCTCTGATGAAGCTTCAGGATGTCATTATGGAGTCTTAACTTGTGGAAGCTGTAAAGTTTTCTTCAAAAGAGCAGTGGAAGGACAGCACAATTACCTATGTGCTGGAAGGAATGATTGCATCATCGATAAAATTCGAAGAAAAAACTGCCCAGCATGCCGCTATCGAAAATGTCTTCAGGCTGGAATGAACCTGGAAGCTCGAAAAAC
modifications: CDS (398)..(928)
B4: 237 (nucleic acid, listed as Homo sapiens)
chain: TGCGCGTGCGCAGGGATAAGAGAGCGGTCTGGACAGCGCGTGGCCGGCGCCGCTGTGGGGACAGCATGAGCGGCGGTTGGATGGCGCAGGTTGGAGCGTGGCGAACAGGGGCTCTGGGCCTGGCGCTGCTGCTGCTGCTCGGCCTCGGACTAGGCCTGGAGGCCGCCGCGAGCCCGCTTTCCACCCCGACCTCTGCCCAGGCCGCAGGCCCCAGCTCAGGCTCGTGCCCACCCACCAAGTTCCAGTGCCGCACCAGTGGCTTATGCGTGCCCCTCACCTGGCGCTGCGACAGGGACTTGGACTGCAGCGATGGCAGCGATGAGGAGGAGTGCAGGATTGAGCCATGTACCCAGAAAGGGCAATGCCCACCGCCCCCTGGCCTCCCCTGCCCCTGCACCGGCGTCAGTGACTGCTCTGGGGGAACTGACAAGAAACTGCGCAACTGCAGCCGCCTGGCCTGCCTAGCAGGCGAGCTCCGTTGCACGCTGAGCGATGACTGCATTCCACTCACGTGGCGCTGCGACGGCCACCCAGACTGTCCCGACTCCAGCGACGAGCTCGGCTGTGGAACCAATGAGATCCTCCCGGAAGGGGATGCCACAACCATGGGGCCCCCTGTGACCCTGGAGAGTGTCACCTCTCTCAGGAATGCCACAACCATGGGGCCCCCTGTGACCCTGGAGAGTGTCCCCTCTGTCGGGAATGCCACATCCTCCTCTGCCGGAGACCAGTCTGGAAGCCCAACTGCCTATGGGGTTATTGCAGCTGCTGCGGTGCTCAGTGCAAGCCTGGTCACCGCCACCCTCCTCCTTTTGTCCTGGCTCCGAGCCCAGGAGCGCCTCCGCCCACTGGGGTTACTGGTGGCCATGAAGGAGTCCCTGCTGCTGTCAGAACAGAAGACCTCGCTGCCCTGAGGACAAGCACTTGCCACCACCGTCACTCAGCCCTGGGCGTAGCCGGACAGGAGGAGAGCAGTGATGCGGATGGGTACCCGGGCACACCAGCCCTCAGAGACCTGAGCTCTTCTGGCCACGTGGAACCTCGAACCCGAGCTCCTGCAGAAGTGGCCCTGGAGATTGAGGGTCCCTGGACACTCCCTATGGAGATCCGGGGAGCTAGGATGGGGAACCTGCCACAGCCAGAACTGAGGGGCTGGCCCCAGGCAGCTCCCAGGGGGTAGAACGGCCCTGTGCTTAAGACACTCCTGCTGCCCCGTCTGAGGGTGGCGATTAAAGTTGCT
modifications: CDS (66)..(911)

Tested on: STAT6
Assay: Screening of full-length cDNA clones for promotion of STAT6 activation (luciferase reporter N4×8-luc)
Assay type: cell-based
Settings: NIH3T3 cells cotransfected with N4×8-luc reporter and cDNA plasmid; 48 h culture, then mouse IL-4 0.5 ng/ml for 6 h
Description: As a preferable method, NIH3T3 cells are inoculated on 10% FBS (Fetal Bovine Serum)-containing IMDM medium in a 96-well cell culture plate to a final cell density of 1×10^4 cells/well, and cultured for 24 hours at 37° C., in the presence of 5% CO2. Then, the luciferase reporter plasmid N4×8-luc which has a STAT6 response sequence, and the expression vector are cotransfected into the cells in a well using FuGENE 6 (Roche). After 48 hours of culture at 37° C., in the presence of 5% CO2 mouse IL-4 (Immuno Biological Laboratories Co., Ltd.) is added to a final concentration of 0.5 ng/ml. After culturing for further 6 hours, promoting activity for STAT6 activation is then measured by measuring luciferase activity using a long term luciferase assay system, Picagene LT2.0 (Toyo Ink Mfg). For example, luciferase activity can be measured using PerkinElmer's Wallac ARVOTMST 1420 MULTILABEL COUNTER. The method for gene introduction by FuGENE6, and measurement of luciferase activity by Picagene LT2.0 can be performed respectively according to the attached protocols. In a method of gene introduction with a 96-well plate using FuGENE6, the amount of FuGENE6 per 1 well is suitably 0.3 to 0.5 μl, preferably 0.3 μl; the amount of N4×8-luc reporter plasmid is suitably 50 to 100 ng, preferably 100 ng; and the amount of expression vector is suitably 50 to 100 ng, preferably 100 ng. An ability (action) to promote STAT6 activation refers to an ability to increase the reporter activity (luciferase activity) relative to the control experiment (for cells into which the reporter gene and a null vector were introduced). Increase in reporter activity is preferably by a factor of 1.5 or more, more preferably by a factor of 3 or more, and still more preferably by a factor of 6 or more.
NIH3T3 cells (purchased from Dainippon Pharmaceutical) were grown to 1×10^4 cells/well in a 96 well plate for cell culture for 24 hours at 37° C. (in the presence of 5% CO2) using 10% FBS containing IMDM medium. Then, 100 ng of luciferase reporter plasmid N4×8-luc having a STAT6 response sequence and 2 μl of the full-length cDNA prepared in above Example 1.(3) were cotransfected into the cells in a well using FuGENE 6 (purchased from Roche) according to the manufacturer's protocol. The luciferase reporter plasmid N4×8-luc having the STAT6 response sequence was constructed as follows. […] 157, 2058-2065 (1996)], oligonucleotides having the following sequences were synthesized:
The synthesized oligonucleotides were dissolved in sterile water to be 1μg/μl, respectively, mixed in 10 μl lots, and adjusted the volume to 32 μl with sterile water. The solution was heated for 5 min at 90° C., and gradually cooled down to room temperature to prepare a double-stranded oligonucleotide solution. The solution was reacted with T4 polynucleotide kinase (Takara Shuzo) according to the attached manual, then the reaction product was purified in a usual manner. Separately, SV40 promoter region of pGL3-Promoter vector (Promega) was replaced by the HSV thymidine kinase promoter sequence (from −50 to +10) with Hind III site and BglII site to construct a vector tk-luc. The aforesaid double-stranded oligonucleotide fragments were inserted into the XhoI site of this tk-luc vector using T4 DNA ligase (GIBCO/BRL). The obtained clones were sequenced according to a usual method, and clones in which plural oligonucleotide fragments were inserted were selected. […] The four-interlinked DNA fragments were excised from the N4×4-luc with a XhoI and a BglII site and purified to be inserted into a BamHI and a XhoI site of pBluescript II KS+ (Stratagene). The four-interlinked DNA fragments were excised from this plasmid with KpnI and SpeI and inserted into a KpnI and a NheI site of N4×4-luc plasmid to finally obtain N4×8-luc.

Row | Molecule | Activity = (luciferase activity of the gene of each SEQ ID NO:)/(luciferase activity of pME18S-FL3)
1 | B1 | 33.5
2 | B2 | 1521.5
3 | B3 | 12.7
4 | B4 | 105.1
